# Results: the nanobody polyreactivity screen of Harvey et al. (2022)
# Assay: yeast display, Sf9 membrane polyspecificity reagent, FACS + sequencing; frameworks hold sequencing errors
# Method in brief: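 Galactose induction of a Saccharomyces cerevisiae BJ5465 synthetic nanobody display library ran 36–48 hours. The cells were then stained for 1 hour at 4 °C with 10% biotinylated, detergent-solubilized Sf9 membrane reagent, pulled down on streptavidin microbeads and FACS-sorted into low and high (top ~1%) gates on expression and reagent-binding fluorescence. Labels for polyreactivity follow the gate of origin.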
row,Sequence,polyreactivity (PSR sort gate)
1,QVQLVESAGGLVQAGGSLRLSCAASGSTFYAYALGWYRQAPGKERELVAAISSDGTNYADSVKGRFTISRDNAKNTVYLQMNSLKPEDTSVYYCDADLLLYSSQDNDYWGQGTQVPVSS,low polyreactivity
2,QVQLEESGGGLVQAGGSLRLSCAASGRTFYVNAMGWYRQATGKERELVAAISWSGGSTYYADSVKGRFTISRDNAKNTVYLQINSLKPEDTAVYYCAAEDIEDYEYWGQGTQVTVSS,low polyreactivity
3,QVQLVESGGGLVQAGGSLRLSCAASGRIFSYNAMGSDRQAPGKERELVADISSGGSTYYADSVKGRFTISRDNAKNSVYLQMNSLKPEDSAVYYCNADYYAFPWTNEYWGQGTQVTVSS,high polyreactivity
4,QVQLVESGGGLVQAGGSLRISCAASGRIFRVYAMGWYRQAPGKERELVAAISYSGGRTFYADSVKGRFTNSRDNAKNTVYLQMNSLKPEDTAVYYCAATSYSTQALPPFDYWGQGTQVTVSS,low polyreactivity
5,QVQLVESGGGLVQAGGSLRLSCAASGIIFYINAMGWYRQAPGKERELFADISSGDRTYYADSVKGRFTISRDNAKNTVYLQMNSLKPEDTAVYYCAAESYSGFVAGHTSLDDYWGQGTQVTVSS,low polyreactivity
6,QVQLVESGGGLVQAGGSLRLSCAASGRTFYWYGMGWYRQAPGKERELVATISRGSRTYYADSVKGRFTISRDNAKNTVYLQMNSLKPEDTAVYYCNADTWPGEYNGYFSGAYDYWGQGTQVTVSS,high polyreactivity
7,QVQLVESGGGLVQAGGSLRLSCAASGGIFLFNAMGWYRQAPGKERELVAAITDGGSTYYADSVKGRFTISRDNAKNTVYLQMNSLKPEDTAVYYCNAEGVSLYGYDSGVDSGEDYWGQGTQVTVSS,low polyreactivity
8,QVHLVESGGGLVQAGGSLRLSCAASGGTFYYNTMGWSRQAPGKERELVAAITSGTSTNYADSVKGRFTISRDNAKNTVYLQMNSRIQEDTAVFDCAADPDADDPRRGYDYWGQGTQVTVSS,low polyreactivity
9,QVQLVESGGGLVQAGGSLLVSCAASGRIFSYNAMGWYRQAPGKERELVAAITRSGSTNYADSVKGRFTISRDNANNTVYLQMNSLKPEDTAVYYCAAVVYRPYRWQYDYWGQGTQVTVSS,high polyreactivity
10,QVQLVESGGGLVQAGGSLRLSCAASGFTFVVYAMGWYSQAPGKERELVARITWSGGSTYYADSVKGRFTISRDNAKNTVYLQMNSLKPEDTAVYDCNTRRYPYDGIEHDYWGQGTQVTVSS,low polyreactivity
11,QVQLVASGGGLVQSGGSLRLSCAASGSTITWYAMGWYRQAPGKDRELVARISSGDRPNYADSVKGRFTISRDNAKNTVYLQMNSLKPEDTAVYYCNADYGQPSYYDDGDYWGQGTQVTVSS,low polyreactivity
12,QVQLVESGGGLVQAGGSLRLSSAASGRTFYRHAMGWYRQAPGKERELVAASTRSGSTNYADSVKGRFTISRDNAKNTVYLQMNSLKPEDTADYYCAAKFFRNTYSYGMDYWGQGTQVTVSS,high polyreactivity
13,QVQLVESGGGLVQAGGSLRLSCAASGITFFVYAMGWYRQAPGKERELVAAISSTASTNYADSVKGRFTISRDNAKYTVYLQMNSRKPEDTAVYYCNAGVWSLGTYWQFDYWGQGTQVTVSS,high polyreactivity
14,QVHLVVSWGGLVQAGGSLRLSCSASGITFKRYAMGWYRQSRGNERELVAAINWNGCGTYYADSVKGRFTISRDNAKNTVYLQMNSLKPEDTAVYYCAAGLAYWYWRGYDYWGQGTQVTVSS,high polyreactivity
15,QVHLVESGGGLVQAGGSLRLSCAASGITFSPYAMGWSRQAPGKERELVAAISSGSSTKYADSVKGRFTISRDNAKNTVYLQMNSLKPEDTAVYYCAARWFDGYAAYGYWGQGTEVTVSS,high polyreactivity
16,QVQLVESGGGIVQAGGSLRISSSASGRIITAYAMGWYRQAPGKERELVAAITRSTTYYADSVKGRFTISRDNAKFSVDLQLHSLKPDDTAVFYCAADYRGTWYGYDYWGQGTHVTVSS,high polyreactivity

row,Sequence,polyreactivity (PSR sort gate)
1,QVQLVESRGGLVQAGGSLRLSCAASGIIFHFYAMGWYRQAPGKERELVAAINSRGGSTYYADSVKGRFTISRDNAKNTVYLQMNSLKPEDTAVYYCAAQYLFYGHDYWGQGTQVTVSS,low polyreactivity
2,QVQLVESGGGLVQAGGSLRLSCAASGRIYKRYDMGWYRQAPGKERELVAAITGTGGSTYYADSVKGRFTISRDNAKNTVYLQMNSLKPEDTAVYYCAARLYNTYSGFAFGYWGQGTQVTVSS,high polyreactivity
3,QVQLVESGGGLVQAGGSLRLSCAASGFTFSLYAMGWYRQAPGKERELVASIDSDGVSTYYADSVKGRFTISRDNAKNTVYLQMNSLKPEDTAVYYCAADLWWGYISGPVRGRGYYWGQGTQVTVSS,low polyreactivity
4,QVQLVESGGGLVQAGGSLRLSCAASGSTFTINAMGWYRQAPGKERELVAAISRSGGSTFYADSVKGRFTISRDNAKNTVYLQMNSLKPEDTAVYYCAAGYRGTAYRYGYCGQGTQVTVSS,high polyreactivity
5,QVQLVESGGGLVQAGGSLRLSCAASGLTFHRYAMGWYRPAPGKERELVAAINYSGGRTYYADSVKGRFTISRDNAKYTVYLQMNSLKPEDTAVYYCAARFSRVYPRYDYWGQGTQVTVSS,high polyreactivity
6,QVQLVESGGGLVQAGGSLRLSCAASGSIFPIYAMGWYRQAPGKERELVAAITRSDGSTYYADSVKGRFTISRDNAKNTVYLQMNSLNPEDTAVYYCGDYGYWGQGTQVTVSS,low polyreactivity
7,QLQLVESGGGLVQAGGSLRLSCAASGSIYWRNAMGWYRQAPGKERELVAAITSGGSTYYADSVKGRFTISRDNAKNTVYLQMNSLKPEDTAVYYCAAGYSYRYGYWGQGTQVTVSS,low polyreactivity
8,QVQLVESGGGLVQAGGSLRLSCAASGSTFWLYAMGWYRQAPGKERELVAAIRSGDRTNYADSVKGRFTISRDNAKNTVYLQMNSLKPEDTAVYYCAAVAYLNWTPHYYWGQGTQVTVSS,low polyreactivity
9,QVQLLETGGGLVQAGGSLRLSCAASGNTIIRYAMGWYRQAPGTERELVAAISYSGGRSYYADSVKGRFTISRDNAKYTVYLLMNSLKPEDTEVYYCIAASRYGGDYWGQVTQVTVSS,low polyreactivity
10,QVQLPESGGGLVQAGGSLRLICAASGYISTFSSEMGWYRQAPGKERELVASIAPGCTTSYADSVKGRFTISRDNAKNTVYLQMNSLKPEDTAVYYCGVDYTVPASFGYWGQGTQVTVSS,high polyreactivity
11,QLQLEESGGGLVQAGGSLRLSCAASGRTFESYGMGLYRQATGKERELVAAISHNADSTYADSVKGRFTISRDNAKNTVYLQMNSLKSEDTAVYYCNAETPVRSDYWGQGTQVTVSS,low polyreactivity
12,QVQLVESGGGLVQAGGSLRLSCAASGSIFWSNAMGWYRQAPGKEREFVATITNGTTTNYADSVKGRFTISRDNAKNTVYLQMNSLKPEDTAVYYCAVTGVYVKYDYWGQGTQVTVSS,low polyreactivity
13,QVQLVESGGGLVQAGGSLRLSCAASGLTFYYYVMGWYRQAPGKERELVAAISSSGGNTYYADSVKGRFTISRDNEKNTVYLQMNSLKPEDTAVYYCAAGQKRTLDNYWGQGTQVTVSS,high polyreactivity
14,QVQLVESGGGLVQAGGSLRLSCAASGSTFDYYGMGWYRQAPGKERELVAAITTSGGSTYYADSVKGRFTISRDNAKNTVYLQMNSLKPEDTAVYYCAAESYWYGTSPYYYLYEYDYWGQGTQVTVSS,high polyreactivity
15,QVQLVESGGGLVQAGGRLRLSCAASGIISSAYAIGWYRQAPGKERELVAAISSGGSTKYADSVKGRFTISRDNAKNTVYLQMNSLKPEDTAVYYCAARTRYPYKVFGYWGQGTQVTVSS,high polyreactivity
16,QVQLVESGGGLVQAGGSLRLSCAASGITFVRNAMGWYRQAPGKEREFVAAISGSGVSTYADSVKGRFTISRDNAKNTVYLQMNSLNPEDTAVYYCARDFPWSYAWYDYWGQGTQVTVSS,low polyreactivity
